± gives the standard error. Fewer inactive variants are shown than the library holds.
B1: glmS ribozyme (parent)
chain: AUAAAAGCGCCAGAACUACAGAAAUGUAGUUGACGAGGAGGAGGUUUAUCGAAUUUUCGGCGGAUGCCUCCAAA

Key:
Conditions in all cases: with glucosamine-6-phosphate
[1] = variants of: B1; test: self-cleavage kobs at 40 uM GlcN6P; higher = faster cleavage; RNA array
How it was run: (§1)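 Barcoded glmS ribozyme variants on sequenced MiSeq chips were transcribed in situ by E. coli RNA polymerase and tracked through a hybridised Cy3 probe at 37 °C. Glucosamine-6-phosphate (40 μM to 10 mM) in HEPES/KCl/Mg(OAc)2 buffer was flowed in, and tiles were imaged over ~14 h. Signals were normalised to baseline and to non-cleaving reference variants; per-tile medians were fit to one- or two-exponential decays to give kobs. kcat and KM came from weighted Michaelis–Menten fits across concentrations.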

[2] = variants of: B1; test: self-cleavage kobs at 160 uM GlcN6P; higher = faster cleavage; RNA array
How it was run: as §1

[3] = variants of: B1; test: self-cleavage kobs at 2500 uM GlcN6P; higher = faster cleavage; RNA array
How it was run: as §1

[4] = variants of: B1; test: self-cleavage kobs at 10000 uM GlcN6P; higher = faster cleavage; RNA array
How it was run: as §1

[5] = variants of: B1; test: self-cleavage kobs at 640 uM GlcN6P; higher = faster cleavage; RNA array
How it was run: as §1

Variant | self-cleavage kobs at 40 uM GlcN6P [1] [s⁻¹] | self-cleavage kobs at 160 uM GlcN6P [2] [s⁻¹] | self-cleavage kobs at 2500 uM GlcN6P [3] [s⁻¹] | self-cleavage kobs at 10000 uM GlcN6P [4] [s⁻¹] | self-cleavage kobs at 640 uM GlcN6P [5] [s⁻¹]
C11G U57G | < 1e-05 | < 1e-05 | < 1e-05 | < 1e-05 | –
C11U C50G C68G | 6.75e-05 ± 1.4e-05 | – | 0.000141 ± 2.8e-05 | – | 0.000123 ± 1.8e-05
G29C U49A | < 1e-05 | – | – | < 1e-05 | –
C8G C50A C61G G63A C71G | 8.24e-05 ± 3.5e-05 | – | – | 0.000367 ± 0.00014 | –
G44C U46A G51A | < 1e-05 | – | – | – | –
G29U G35A G40C A42G | < 1e-05 | – | – | – | –
G7A U55C | < 1e-05 | < 1e-05 | – | – | < 1e-05
A15C U69C | 0.000108 ± 2.5e-05 | – | 0.000165 ± 4.4e-05 | 0.00087 ± 0.00022 | 0.000226 ± 8.5e-05
C8A C11U | < 1e-05 | – | < 1e-05 | < 1e-05 | < 1e-05
G35C U57A | < 1e-05 | < 1e-05 | < 1e-05 | – | < 1e-05
C11G G40A A42G C58U C67G C68A | 0.00042 ± 9.3e-05 | – | – | 0.000191 ± 3.9e-05 | –
C10G U47G C70U C71G | < 1e-05 | – | – | – | 0.00148 ± 0.00064
G7C A33G A53U A64G | < 1e-05 | – | – | – | < 1e-05
C10G A15G U30G G63U | < 1e-05 | – | – | < 1e-05 | < 1e-05
G9U C11A A36G | < 1e-05 | – | – | – | –
C11U G13A | < 1e-05 | – | 3.03e-05 ± 1.4e-05 | 6.97e-05 ± 1.7e-05 | –
A6G A14U U55G C68G | < 1e-05 | – | – | – | –
G40A G41C C61G | < 1e-05 | – | < 1e-05 | – | < 1e-05
A6U A48G G51C G59C | < 1e-05 | – | – | < 1e-05 | –
G32A G59C | < 1e-05 | < 1e-05 | < 1e-05 | – | < 1e-05
G29C C34U | < 1e-05 | < 1e-05 | < 1e-05 | < 1e-05 | < 1e-05
G7C U30G G35U G37U U57C C71G | < 1e-05 | – | – | < 1e-05 | –
C34U C61A C67U | 0.00014 ± 3.8e-05 | – | 5.38e-05 ± 2.6e-05 | 0.000236 ± 6.1e-05 | 0.000388 ± 0.00011
G35U U54C U55A G59C | < 1e-05 | – | – | < 1e-05 | –

Variant | self-cleavage kobs at 40 uM GlcN6P [1] [s⁻¹] | self-cleavage kobs at 160 uM GlcN6P [2] [s⁻¹] | self-cleavage kobs at 2500 uM GlcN6P [3] [s⁻¹] | self-cleavage kobs at 10000 uM GlcN6P [4] [s⁻¹] | self-cleavage kobs at 640 uM GlcN6P [5] [s⁻¹]
C10U C50G U57G | 0.000105 ± 2.4e-05 | – | – | 4.71e-05 ± 1.6e-05 | –
A39C U69G | < 1e-05 | – | – | < 1e-05 | < 1e-05
C10G A14G C16A G41C | < 1e-05 | – | – | < 1e-05 | –
A6G A39G C68A C70G | < 1e-05 | – | – | – | –
A14U C16U | 0.00025 ± 3.2e-05 | 0.000555 ± 0.00011 | 0.00183 ± 0.0004 | 0.00789 ± 0.001 | 0.00297 ± 0.00042
A6C G13C G29U C70G | < 1e-05 | – | – | – | –
C8A U25C G37U U69G | 0.000134 ± 3.6e-05 | – | – | – | 0.000488 ± 0.00011
G32A C70U | 6.22e-05 ± 6.9e-06 | 0.000126 ± 2.7e-05 | 0.000902 ± 0.00023 | 0.00374 ± 0.00046 | 0.000627 ± 9.7e-05
A23C C71U | 0.00121 ± 0.0003 | 0.000719 ± 0.0002 | – | – | 0.00652 ± 0.0018
U55A C68U | 0.000668 ± 0.00012 | 0.000841 ± 0.00019 | 0.00477 ± 0.00099 | 0.0158 ± 0.004 | 0.00148 ± 0.00045
C8G U30A U31C | < 1e-05 | – | – | < 1e-05 | –
C10A A39U U49C | < 1e-05 | – | – | < 1e-05 | –
G7A G32C | < 1e-05 | < 1e-05 | < 1e-05 | < 1e-05 | < 1e-05
A15U C34G | < 1e-05 | < 1e-05 | – | < 1e-05 | < 1e-05
G37A U56A | 1.92e-05 ± 6.8e-06 | 4.84e-05 ± 1.8e-05 | – | 0.000962 ± 0.00011 | –
U30C A33C | < 1e-05 | < 1e-05 | – | – | < 1e-05
G7U G9U | < 1e-05 | < 1e-05 | < 1e-05 | < 1e-05 | < 1e-05
A6C G43C G63A C71A | < 1e-05 | – | – | < 1e-05 | –
C16G G62U | < 1e-05 | < 1e-05 | < 1e-05 | < 1e-05 | < 1e-05
G37U G41C C67A | < 1e-05 | – | – | – | –
A39C A42G A64C C67G | < 1e-05 | – | – | < 1e-05 | –
C8A C68G | 0.000368 ± 0.00014 | – | – | – | –
C16G G62U C67G | < 1e-05 | – | – | – | –
C10A G32C | < 1e-05 | – | < 1e-05 | – | < 1e-05

Variant | self-cleavage kobs at 40 uM GlcN6P [1] [s⁻¹] | self-cleavage kobs at 160 uM GlcN6P [2] [s⁻¹] | self-cleavage kobs at 2500 uM GlcN6P [3] [s⁻¹] | self-cleavage kobs at 10000 uM GlcN6P [4] [s⁻¹] | self-cleavage kobs at 640 uM GlcN6P [5] [s⁻¹]
C34G G35C | < 1e-05 | – | – | – | –
C50U C61G G63U | < 1e-05 | – | – | – | –
U45A A48C C58U | < 1e-05 | – | – | < 1e-05 | –
C10U G44A | < 1e-05 | < 1e-05 | – | < 1e-05 | < 1e-05
C10G A12G G59U C61G | < 1e-05 | – | – | – | –
C16U C61G U65G | < 1e-05 | – | – | – | –
A52C A64G | < 1e-05 | < 1e-05 | – | – | < 1e-05
C34G C58G | < 1e-05 | < 1e-05 | – | < 1e-05 | < 1e-05
G35A U46A | < 1e-05 | < 1e-05 | < 1e-05 | < 1e-05 | < 1e-05
G38U A52U U57G A64G | < 1e-05 | – | – | < 1e-05 | –
G13U U31A A39C C68U U69A | < 1e-05 | < 1e-05 | – | – | < 1e-05
G32A C50A U55G C71G | < 1e-05 | – | – | – | –
U30A G63U | < 1e-05 | < 1e-05 | – | < 1e-05 | –
G60U G62A C70U | < 1e-05 | – | – | < 1e-05 | –
G35U U47A C50G C70U | 0.000411 ± 0.00012 | – | – | 0.000429 ± 0.00017 | –
A12G A14G U30A U46C U49C U57C | < 1e-05 | – | < 1e-05 | < 1e-05 | –
A33U G37C U45C A64C | < 1e-05 | – | – | < 1e-05 | –
A6G A15U G59A | < 1e-05 | – | < 1e-05 | < 1e-05 | –
G41A U49A | < 1e-05 | < 1e-05 | – | < 1e-05 | –
A14G G38A | < 1e-05 | – | – | – | –
A12G G44C C67G | < 1e-05 | – | – | 0.000225 ± 4.3e-05 | –
G7U C34U | < 1e-05 | – | < 1e-05 | – | –
G44A C68G | < 1e-05 | < 1e-05 | < 1e-05 | < 1e-05 | < 1e-05
A12C G35U U47C A48U | < 1e-05 | – | – | < 1e-05 | < 1e-05

Variant | self-cleavage kobs at 40 uM GlcN6P [1] [s⁻¹] | self-cleavage kobs at 160 uM GlcN6P [2] [s⁻¹] | self-cleavage kobs at 2500 uM GlcN6P [3] [s⁻¹] | self-cleavage kobs at 10000 uM GlcN6P [4] [s⁻¹] | self-cleavage kobs at 640 uM GlcN6P [5] [s⁻¹]
C10G G32U A36C G40U G63U | < 1e-05 | – | < 1e-05 | < 1e-05 | –
C10A A12U | < 1e-05 | – | – | – | –
A42C G44A | < 1e-05 | < 1e-05 | – | < 1e-05 | < 1e-05
A12C U49A | < 1e-05 | < 1e-05 | – | – | –
C34G G41C G66U | < 1e-05 | – | – | < 1e-05 | –
G51C A64U | < 1e-05 | < 1e-05 | – | < 1e-05 | < 1e-05
A33U G62C | < 1e-05 | – | – | – | < 1e-05
U55G C61A G66C C70A | 0.000162 ± 4.4e-05 | 0.000108 ± 2.1e-05 | 8.3e-05 ± 1.7e-05 | – | 0.000153 ± 3.1e-05
G32U G63U C71A | < 1e-05 | – | – | < 1e-05 | < 1e-05
A14G A53U C71G | 0.000153 ± 2.4e-05 | – | 0.00038 ± 0.0001 | – | 0.000741 ± 0.00014
G29C G40C U65C | < 1e-05 | – | – | – | –
G43C | < 1e-05 | < 1e-05 | < 1e-05 | – | < 1e-05
G43A C58A | < 1e-05 | < 1e-05 | < 1e-05 | < 1e-05 | < 1e-05
A6G C50G A64U | 7.9e-05 ± 3.2e-05 | – | – | 0.000157 ± 2.5e-05 | –
A14C C34A | < 1e-05 | < 1e-05 | – | < 1e-05 | < 1e-05
G38U U45G | < 1e-05 | – | – | – | < 1e-05
U47A G60A | < 1e-05 | < 1e-05 | < 1e-05 | – | –
G29C U56A | 4.47e-05 ± 1.2e-05 | 2.63e-05 ± 1.3e-05 | 0.000439 ± 8.7e-05 | 0.00136 ± 0.00016 | 0.000209 ± 3.6e-05
A42U G60C C67A | < 1e-05 | – | – | < 1e-05 | –
G13C G29U G32A U54G U65C C68G U69G | 0.00014 ± 4.1e-05 | 0.000198 ± 5.6e-05 | 9.24e-05 ± 2.8e-05 | 0.000151 ± 3.1e-05 | 0.000623 ± 0.00016
C8G C11G U30C C34G G44U G62A | < 1e-05 | – | – | < 1e-05 | –
A33U C50G C71G | 0.000128 ± 2.3e-05 | – | – | 0.0002 ± 4.2e-05 | –
A6C A15C U54C C71U | < 1e-05 | – | – | – | –
A36G U49G | < 1e-05 | – | – | – | < 1e-05

— the supplement of paper PMC7125110
